B1: Grp1_(14-390), constitutively active construct lacking the polybasic motif (domain or fragment, mouse, UniProt O08967 14-390, looked up)
chain: EDLSLEEREELLDIRRRKKELIDDIERLKYEIAEVMTEIDNLTSVEESKTTQRNKQIAMGRKKFNMDPKKGIQFLIENDLLQSSPEDVAQFLYKGEGLNKTVIGDYLGERDDFNIKVLQAFVELHEFADLNLVQALRQFLWSFRLPGEAQKIDRMMEAFASRYCLCNPGVFQSTDTCYVLSFAIIMLNTSLHNHNVRDKPTAERFITMNRGINEGGDLPEELLRNLYESIKNEPFKIPEDDGNDLTHTFFNPDREGWLLKLGGRVKTWKRRWFILTDNCLYYFEYTTDKEPRGIIPLENLSIREVEDPRKPNCFELYNPSHKGQVIKACKTEADGRVVEGNHVVYRISAPSPEEKEEWMKSIKASISRDPFYDMLAT
notes: Grp1 (cytohesin-3), mouse, diglycine splice variant, residues 14-390 (lacks the polybasic region); also called fully active Grp1 dimer; source: E. coli BL21(DE3), purified (Ni-NTA, HiTrap Q, Superdex-200)
B2: Grp1_(14-399), diglycine variant, autoinhibited, in complex with the head group of PIP3 (IP4) (domain or fragment, mouse, UniProt O08967 14-399, looked up)
chain: EDLSLEEREELLDIRRRKKELIDDIERLKYEIAEVMTEIDNLTSVEESKTTQRNKQIAMGRKKFNMDPKKGIQFLIENDLLQSSPEDVAQFLYKGEGLNKTVIGDYLGERDDFNIKVLQAFVELHEFADLNLVQALRQFLWSFRLPGEAQKIDRMMEAFASRYCLCNPGVFQSTDTCYVLSFAIIMLNTSLHNHNVRDKPTAERFITMNRGINEGGDLPEELLRNLYESIKNEPFKIPEDDGNDLTHTFFNPDREGWLLKLGGRVKTWKRRWFILTDNCLYYFEYTTDKEPRGIIPLENLSIREVEDPRKPNCFELYNPSHKGQVIKACKTEADGRVVEGNHVVYRISAPSPEEKEEWMKSIKASISRDPFYDMLATRKRRIANKK
notes: Incubated with a 1.2 molar excess of inositol 1,3,4,5-tetrakisphosphate (IP4) before SEC-SAXS and NS-EM; source: E. coli BL21(DE3), purified (Ni-NTA, HiTrap Q, Superdex-200)
B3: Full-length ARNO carrying a 3G sequence in the membrane-binding site (ARNOFL) (natural protein, human, UniProt Q99418 1-400, looked up)
chain: MEDGVYEPPDLTPEERMELENIRRRKQELLVEIQRLREELSEAMSEVEGLEANEGSKTLQRNRKMAMGRKKFNMDPKKGIQFLVENELLQNTPEEIARFLYKGEGLNKTAIGDYLGEREELNLAVLHAFVDLHEFTDLNLVQALRQFLWSFRLPGEAQKIDRMMEAFAQRYCLCNPGVFQSTDTCYVLSFAVIMLNTSLHNPNVRDKPGLERFVAMNRGINEGGDLPEELLRNLYDSIRNEPFKIPEDDGNDLTHTFFNPDREGWLLKLGGGRVKTWKRRWFILTDNCLYYFEYTTDKEPRGIIPLENLSIREVDDPRKPNCFELYIPNNKGQLIKACKTEADGRVVEGNHMVYRISAPTQEEKDEWIKSIQAAVSVDPFYEMLAARKKRISVKKKQEQP
notes: Cloned in pET-8c (Antonny et al., 1997); also called Cytohesin-2; source: E. coli, purified (Ni-NTA HisTrap FF, Superdex 200)

Experiments:
[1] = target: the molecule itself; test: SEC-SAXS; BioCAT 18-ID (APS); samples with 1.2 molar excess of IP4, concentrated to 10-20 mg/ml, Superdex-200 Increase; 20 mM Tris pH 8.0, 150 mM NaCl, 2 mM MgCl2, 0.1% 2-mercaptoethanol, 5% glycerol, 1 μM IP4; peak concentration ∼80 μM (Grp1 14-399), ∼1 mg/mL (Grp1 14-390)
[2] = target: the molecule itself; test: SEC-SAXS; ARNOFL, no phosphoinositide head group; BM29 beamline (ESRF), Bio Sec300 HPLC column, 600 μg in 60 μL injected

| Protein | stoichiometry N [1] | stoichiometry N [2] |
| --- | --- | --- |
| B1 | 2 |  |
| B2 | 2 |  |
| B3 |  | 2 |

Reference: publication PMC6948192, “Structural Organization and Dynamics of Homodimeric Cytohesin Family Arf GTPase Exchange Factors in Solution and on Membranes” (Structure(London, England:1993), 2019)
